Data as given in patent publication US20090305339A1, “Polypeptides With Laccase Activity” (VIALACTIA BIOSCIENCES (NZ) LIMITED, priority 2006, published 2009).

Experiments:
[1] = substrate: COc1cc(/C=N/N=C/c2cc(OC)c(O)c(OC)c2)cc(OC)c1O; experiment: Steady-state kinetics of RL5 laccase, spectrophotometric oxidation of laccase substrates; format: biochemical, bovine rumen metagenome; settings: other: 40° C., pH 4.5, 14 nM protein, substrate 0 to 1 mM
Description: (§2) Protein concentrations were determined according to Bradford (31), with BSA as standard.
(§3) Laccase activity was determined spectrophotometrically in a thermostated spectrophotometer (Perkin-Elmer) at 40° C. in 100 mM sodium citrate buffer, pH 4.5 (1 ml). The standard assay was performed at 530 nm, using SGZ as the oxidation substrate (ε530=64,000 M^−1cm^−1). The reaction was started by adding SGZ, from a stock solution in methanol, to a final concentration of 20 μM. […] Catalytic constants were derived by fitting the experimental data onto the Michaelis-Menten model. Control measurements without enzyme were carried out to correct for possible chemical oxidation of the substrates.

[2] = substrate: COc1cccc(OC)c1O; experiment: as above; format: biochemical, bovine rumen metagenome; settings: other: 40° C., pH 4.5, 14 nM protein, substrate 0 to 1 mM
Description: as §2, §3

[3] = substrate: CCn1c(=NN=c2sc3cc(S(=O)(=O)O)ccc3n2CC)sc2cc(S(=O)(=O)O)ccc21; experiment: purified protein, by the assay type; settings: other: 40° C., pH 4.5, 14 nM protein, substrate 0 to 1 mM
[4] = Laccase activity, spectrophotometric, SGZ as substrate; format: biochemical; settings: data not shown
Description: (§1) Laccase activity was determined spectrophotometrically in a thermostated spectrophotometer (Perkin-Elmer) at 40° C. in 100 mM sodium citrate buffer, pH 4.5 (1 ml). The standard assay was performed at 530 nm, using SGZ as the oxidation substrate (ε530=64,000 M^−1cm^−1). The reaction was started by adding SGZ, from a stock solution in methanol, to a final concentration of 20 μM. […] Oxidation of phenol red (75 μM) was determined by the decrease in absorbance at 432 nm. The activity:pH and activity:temperature relationships were determined by incubating the enzyme:substrate mixtures at different pH values and constant temperature (40° C.), and at different temperatures (15-80° C.) and constant pH (4.5), respectively. Catalytic constants were derived by fitting the experimental data onto the Michaelis-Menten model. Control measurements without enzyme were carried out to correct for possible chemical oxidation of the substrates.

[5] = Oxidative reactions of various compounds (substrate preference, overall kinetics, pH range); format: biochemical; settings: order of oxidized substrates
Description: as §1

[6] = Laccase activity, spectrophotometric, DMP as substrate; format: biochemical; settings: data not shown
Description: as §1

[7] = pH- and temperature-dependent activity and inactivation profiles; format: biochemical; settings: sodium citrate pH 4.5, 1 mM SGZ or DMP
Description: FIG. 2A represents the effect of various pH values on the activity of recombinant purified RL5 laccase. The activity was measured at 40° C. using 1 mM SGZ (syringaldazine) or DMP as substrate. The buffers (100 mM) used were: citrate (pH 3.0-5.5), MES (pH 5.5-7.0), HEPES (pH 7.0-8.0), Tris-HCl (pH 8.0-9.0) and glycine-NaOH (pH 9.0-12). The activity of RL5 for DMP reached an optimum at a broad pH ranging from 3.5-9.0, being optimal at 4.0-5.0; however, it maintained more than 70% activity at pH 3.5 and 9.0 (FIG. 2A).
FIG. 2B represents the pH inactivation of purified RL5 laccase in sodium citrate pH 4.5 (indicated with “∘”) or glycine-NaOH pH 9.0 (indicated with “[…]”) over a time period of 240 min. 100% activity in the purified protein sample equals 7.2 units/mg (measured at 40° C.).
FIG. 2C represents the effect of the temperature on the activity of recombinant purified RL5 laccase. The enzyme activity was assayed at each indicated temperature in sodium citrate pH 4.5 in the presence of 1 mM SGZ or DMP. Activity was monitored at 420 nm. Protein activity increased as the temperature was raised to a maximum at ˜60° C. Therefore, RL5 is stable at high temperatures.
FIG. 2D represents the thermal inactivation of purified RL5 laccase. Purified enzyme was incubated in vials at 60° C. ([…]) or 65° C. (∘). At the indicated times, samples were withdrawn and tested for laccase activity at 40° C. by using SGZ or DMP as a substrate. 100% activity in the purified protein sample equals 17.2 units/mg.
Corresponding experiments were performed with BT4389 and YfiH under conditions as described above for FIGS. 2A to 2D (data not shown). The activity of these enzymes reached an optimum at a temperature of 52° C. (for BT4389) and 44° C. (for YfiH) and the thermal activity maintained for more than 80% at 55° C. (for BT4389) and at 50° C. (for YfiH). The activity of both enzymes reached an optimum at a pH range from 4.5 to 6.0 (for BT4389) and from 5.5 to 8.4 (for YfiH), although 80% activity maintained at pH 4.0 to 7.5 (for BT4389) and 5.0 to 9.0 (for YfiH).
as §1

[8] = Laccase activity, guaiacol as substrate; format: biochemical; settings: data not shown
Description: as §1

[9] = Laccase activity, veratryl alcohol as substrate; format: biochemical; settings: data not shown
Description: as §1

B1: RL5 laccase (bovine rumen metagenome), wild type, FIG. 11 (unidentified prokaryotic organism) (protein)
chain: MIELEKLDFAKSVEGVEAFSTTRGQVDGRNAYSGVNLCDYVGDDALRVLDARLTLAMQLGVDLDDLVMPRQTHSCRVAVIDERFRALDIDEQEAALEGVDALVTRLQGIVIGVNTADCVPIVLVDSQAGIVAVSHAGWRGTVGRIAKAVVEEMCRQGATVDRIQAAMGPSICQDCFEVGDEVVEAFKKAHFNLNDIVVRNPATGKAHIDLRAANRAVLVAAGVPAANIVESQHCSRCEHTSFFSARRLGINSGRTFTGIYRK
With B1 the Km [1] was 0.43 µM, the kcat [1] was 663.45 s⁻¹ and the Km [2] was 0.45 µM. For the same molecule, the kcat [2] was 1174 s⁻¹, the Km [3] was 26.2 µM and the kcat [3] was 18.05 s⁻¹.

B2: YfiH: DUF152 domain containing hypothetical protein from Escherichia coli, Gene Bank AAG57706, identified as laccase (FIG. 13) (protein, listed as Escherichia coli)
chain: MSKLIVPQWPLPKGVAACSSTRIGGVSLPPYDSLNLGAHCGDNPDHVEENRKRLFAAGNLPSKPVWLEQVHGKDVLNLTGEPYASKRADASYSNTPGRVCAVMTADCLPVLFCNRAGTEVAAAHAGWRGLCAGVLEETVSCFADNPENILAWLGPAIGPRAFEVGAEVREAFMAVDAEASTAFIQHGDKYLADIYQLARQRLANVGVEQIFGGDRCTYTENETFFSYRRDKTTGRMASFIWLI
modifications: Description of sequence amino acid sequence of protein YfiH with unknown function DUF152 from Escherichia coli (Gene Bank accession number AAG57706) (see Fig. 13)
For B2, the oxidation activity [4] was 5.6 units/g protein, the substrate preference [5] was “SGZ>DMP>>veratryl alcohol>>guaiacol” and the oxidation activity [6] was 4 units/g protein. For the same molecule, the “temperature optimum of activity” value [7] was 44 °C, the oxidation activity [8] was 0.5 units/g protein and the oxidation activity [9] was 2.1 units/g protein.
